Data on one protein can be found in patent publication US20090318673A1 (NEC SOFT, published 2009).

The data set deals with the molecule itself. Kind of data set: X-ray crystal structure, 1.9 A, space group C2221. From the text: Programs, MOSFLM and SCALA (CCP4) were used in the data processing of the detected diffraction pattern and intensity data.

B1: GFP-like fluorescent protein from Chiridius poppei, CpYGFP (recombinant, wild type) (other)
chain: MTTFKIESRIHGNLNGEKFELVGGGVGEEGRLEIEMKTKDKPLAFSPFLLSHCMGYGFYHFASFPKGTKNIYLHAATNGGYTNTRKEIYEDGGILEVNFRYTYEFNKIIGDVECIGHGFPSQSPIFKDTIVKSCPTVDLMLPMSGNIIASSYARAFQLKDGSFYTAEVKNNIDFKNPIHESFSKSGPMFTHRRVEETHTKENLAMVEYQQVFNSAPRDM
modifications: G55-Y56-G57 cyclised and oxidised to the p-hydroxybenzylideneimidazolinone fluorescent moiety
notes: Expressed in E. coli from pET101-NFP, purified and crystallised; In the crystal (space group C2221, PDB 2DD7) it is seen as a dimer; also called recombinant CpYGFP; wild-type CpYGFP
For the protein B1, the binding result is “binds”.
